The source of these data is a protein production outcome set (Wang et al. 2014).

This series is described as follows: label from the status in PepcDB records.
As for “MDKENEYNKMCEEHDKYFKNLFKNLNRKIEYTFACEKENTYDDSVSNSIYTNSNQNEDNISYNNNNINNDNISSSSISKNSNNTKNSSFNETKNINDDKIKYDDKNVYDDKNINDDKNIYDDKYLYDDKNINHDKYSYDDKNINDDKYLYDDKNLYDGNNIYEENNYNNNNTNGHQMKSPTYHMKNSVQNITIYTSINKNDISKDINKINEKNTANINTSHIYQIKNDENNNNIYNNVEHIKSLCESYKNYDNDHLLYYKKHSHSKEDIHNYPIFNNAKTSQLENSNNDFLNIMNNNIKNNISEMESSKKKKKSNLLITNEIEDKLSNIQINHTNKINENNTIQYGQKTKGNKIGNHKTNIKEKLNDLIENIHLKNNKIENMNNMDDMNDMDNMNNMDDMDNTDNMNNRGNMNNRDNINNRDNMNNSNNMDNKDNMNNKDNINNKDNMNNKDNINNKDNINNLNCIDNMKHDKLQKDHLETPPIHKSPITRKSKNNIMDILNNKMNITSLENVDTSTPKYVKYNTIHREIMNPRQHFFNQNKSSIDHIICL”, the protein production result is on record as “failed”.

Take “APLPVIFIPGIMGTNLRNKADKSEVWRPPNGLWPMDDLFASIGALWTWAWRGPKARQELLKAEQVEVDDQGTIDVGQSGLSEEAARLRGWGKVMRSAYNPVMGLMERRLDNIVSRRELQAWWNDEALSPPGDQGEEQGKVGPIDEEELLRASRYQFDVWCAGYNWLQSNRQSALDVRDYIENTVLPFYQKECGLDPEQMRRMK”: the protein production result is on record as “failed”.

On to “MDARIVNALIGSVYETIRDVLGIEPKTGKPSTVSHIEIPHSLVTVIGITGGIEGSLIYSFSSETALKVVSAMMGGMEYNQLDELALSAIGELGNMTAGKLAMKLEHLGKHVDITPPTVVSGRDLKIKSFGVILKLPISVFSEEDFDLHLSVKSGG”, for which the protein production result is recorded as “not failed”.

In the case of “MGQPQQPEGAGAEEAAAGTDSGTDTGTGAGAGAATGASATRPPLRVGMVGYAFMGAAHSQGWRTAGRVFDLPLNPVLAAICGRDADAVRLAADRHGWASTETDWRTLVERDDIDLVDICTPGDSHSEIALAALAAGKHVLCEKPLANTVEEAQAMTRAAEEAAARGQLAMVGFNYRRVPATALARRMVAEGRVGRLRHLRVTYLQDWLVDPKAPLTWRLRKELAGSGALGDLGAHIVDLAQYLSGERIAGVSALTETFVRERPLPAGAPRGLSAGSADGVTGQVTVDDAAVFTGRLTSGALVSFEATRYATGRKNALRIELNGERGSLAFDLERLNELSYHDGTEPGEHAGFRRILVTEPEHPYLEAWWPPGHGLGYEHTFVHQARDLVHAVAEGRGPEPSFADGLQVQRVLAAVEESAEKNSVYTPITP”, the protein production entry is on record as “failed”.

With “MKFLGRGRELARFKEELDAARPSLVILYGRRRVGKSRFLRELGKSRKEIYFQATRVSSLLNLEQFKIEVANILGALPVLESLPSWEGVFYYIAEHTRNNPGLLITIDEFPYLLDGDPALPSILQKFWDSGAPADGGLKLILCGSSISQMQDLLAERNPLYGRQTLSLDMKQLPLTDVARFFPKYDAEAIISTYAIFGGIPHYLQLFNPDVPLKDNVVRLLLTETGTLVDEPNTLLQTELHEPGFYSSVLAAIADGCNTTSEIASRLGVKVEKITSYAAKLVALHLISNTKSLDVDEKVRNRRFRLDDSLISFWHRFVRPSLTAISGGFGEEVYRQVVAPGFSEYMGIAFEAIALEYARIHIQEKLGLPAKELGQIWGHSDFDIDVAGRLLNGEYFYGDCKWTNADIDMGHLRQLRERSERTRYGRGTAGKHFLLFSKAGFSTDLIVFAKDETRRVHLLTPNDLVRPNQ”, the protein production entry is reported as “failed”.

Consider “MEVPMDCPGCENKVRKALEKMNGVHDVQIDIKQQRVTVTGSAEQKKVLKVARNVTKRDICLWSYPYHPESNGYNDRYFKKKFRKRINMSVNGEKVSSYNYHKHGYHGHEHGYYQERPYSGLINPSASSMFSEENPHFCSIM”, for which the protein production entry is “failed”.
